The target in this assay is AviTagged clade B YU-2 gp140 trimers (HIV-1 clade B, strain YU-2 | not stated). Put plainly: SEC. A general note: SEC sorts molecules by how far they enter the pores of the column.

Drawing on article PMC6458971, this text covers stoichiometry N for one substance.

As for “AviTagged clade B YU-2 gp140 trimers (domain or fragment)”, the stoichiometry N is 3.

The term stoichiometry N denotes a count of units in the complex or per binding partner.
